In the nanobody polyreactivity screen of Harvey et al. (2022):

Assay: yeast display, Sf9 membrane polyspecificity reagent, FACS + sequencing; frameworks hold sequencing errors
Method in brief: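 Synthetic nanobody libraries on Saccharomyces cerevisiae BJ5465 were galactose-induced for 36–48 hours, stained 1 hour at 4 °C with 10% biotinylated, detergent-solubilized Sf9 membrane reagent and enriched on streptavidin microbeads. FACS then separated cells into low and high (top ~1%) gates by anti-HA (expression) and streptavidin (reagent binding) fluorescence. Genes were colony-PCR amplified, MiSeq 2 × 250 sequenced and CDR-length filtered. A clone's polyreactivity label is that of its gate of origin.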

| Sequence | polyreactivity (PSR sort gate) |
| --- | --- |
| QVQLVESGGGLVQAGGSLRLSCAASAFILASYPMGWNRQAPGKERELVAAITKRGGSTYYADSVKGRFTISRDNAKNTVFLQMNSLKPEDTAVYFCATYSSTVLPRWKYYYWGQGTQVPVSS | high polyreactivity |
| QVQLVESGGGLVQAGGSLRLSCAASGFTFNEYAMGWYRQAPGKERELVAAITWGGASTYYADSVKGRFTISRDNAKNTVYLQMNSLKPEDTAVYYCVFVYVYDYYYWGQGTQVTVSS | high polyreactivity |
| HVQLVESGGGLVQAGGSLRLSCAASGSTFTTNVRGWYRQAPGKERELVAAISWNGASTNYADSVKGRFTISRDNAKNTVYLHMNSLNPEDTAVYYCAADVTGLVWDSYYYYFLYEYEYWGQGTQVTVSS | high polyreactivity |
| QVQLVESGGGIVKAAGSLRLSCAASGSTFKKYAMGWDRQAPRKERELVASISSGGGTYYADSVKGRFTISRDNAKNTVYVQMNSLKPEDTAVYYCAARYHYAKSPYRYYYWGQGTQVTVSS | high polyreactivity |
| QVQLVESGGGLVQAGGSLRLSCAASGSILYVYAMGWYTQAPGKERELVAAISNRDGSTYYADSVKGRFTISRDNAKNTVYLQMNSLKPEDTAVYYCNADGYGDYSFLKYRFEYDYWGQGTQVTVSS | low polyreactivity |
| QVQLVESGGGLVQAGGSLRLSCAASGSTFRYNAMGWYRQAPGTERELVAAINWSGSSTYYADSVKGRFTISRDNAKKTVYLQMNSLKPEDTAVYYCAAERPWYTKWGEYWGQGTQVTVSS | high polyreactivity |
| QVQLVESGGGLVQAGGSLRLSCAASGNIFANYAMGWYRQAPGKERELVAAIRWSASRPYYADSVKGRFTISRDNAKNTVYLQMNSLKPEDTAVYYCAATIYTFWDYYYDYWGQGTQVTVSS | high polyreactivity |
| QVQLVESGGGLVQAGGSLRLSCAASGYTFRGYAMGWYRQAPGKEREFVAAINWSDGSTYYADSVKGRFTISRDNAKNTVYLQMNSLKPEDTAVYYCNADQYYRVPDNYWGQGTLVTVSS | low polyreactivity |
| QVQLVESGGGLVQAGASLRLSCAASGGIFYVYDMGWYRQAPGKERELVAVITFTGGSTYYADSVKGRYTISRDNAKNSVYFQKNRLKPEDTAVYYCAADAYQSAYSGEYDVYTEYDYWGQGTQVTVSS | low polyreactivity |
| QVQLVESGGGLVQAGGSLRLSCAASGSIFVGYAMGWYRQAPGKERELVAAISASGSSTYYADSVKGRFTISRDNAKNTVYLQMNSLKPEDTAVYYCATKRVASSWTYVYWGQGSQVTVSS | high polyreactivity |
| QVQLVESGGGLVQAGGSLRLTCAASGRTFPGNAMGWYRQAPGKERELVAAISWSVDRTYYADSVKGRFTISRDNAKNTVYLQMNSLKPEDTAVYYCAAVHWWSSSLRMYYWGQGTQVTVSS | low polyreactivity |
| QVQLVESGGGLVQAGGSLRLSCAASGFTFDGYAMGWYRQAPGKERELVAAISQSGGSTYYADSVKGRVTISRDNAKNTVYLQMNSLKPEDTAVYYCNAYTGYRIRYDYWGQGTQVTVSS | high polyreactivity |
| QVQLVESGGGLVQAGGSLRLSCAASGSTFSRYAMGWYRQAPGKERELVAAISSSGGGTYYADSVKGRFTISRDNAKNTVYLQMNSLKPEDTAVYYCAAKRVHGATGYWGQGTQVTVSS | high polyreactivity |
| QVQLVESGGGLVQAGGSLRLSCDASGLTFAYYAMGWYRQEPGKERELVADISWNGGRTYYSDSVKGRFTISGYNAKNTVYLQMNSLKPEDSAVYYCAAQVTSSFYWGQGTQVTVSS | high polyreactivity |
| QVQLVESGGGLVQAGGSLRLICAASGRTFYLYAMGWYRQAPGKERELVASITKSGGSTYYADSVKGRFTISRDNAKNTVYLQMNSLKPEDTAVYYCATDGRWRLAGAFTGKRRTYDYWGQGTQVTVSS | low polyreactivity |
| QVQHVETGGGLVQAGGSLRLSCAASGFLFYFNDKGWYRQAPGKERELVASITSGASTNYADSVKGRFTISRDNAKNTVYLQMNSLKPEDTAVYYCAAAYFWLYPYVEYDYWGQGTQVTVSS | low polyreactivity |
| QVQLVESWGGLVQAGCSLRISCAASGSTLYSYAMGWNIQAPGKERELVAAINSGSNTYYADSVKGRFTISRDNAKNTVYLQMNSLKPEDTAVYYCAAKGIIYTGYDGARRAYGYWGQGTQVTVSS | high polyreactivity |
| QDQLVESGGGLVQAGGSLRLSCSASGRIFYYYTMGWYRQEPGKERELVAAISSGGSTNYADSVKGRFTISRDNAKNTVYLQMNSLKPEDTAVYYCNVELTTVGHWYYYRPGYDYWVQGTQVTVSS | low polyreactivity |
| QVQLVDSGGGLVQAGGSLRLSCAASGRIFQPNAMGWYRQAPGKEMEFVAAISSSGGSTFYADSVKGRFTISRDNAKNTVYLQMNSLKPEDTAVYYCAKRYGYTEYYYWGQGTQVTVSS | high polyreactivity |
| QVQLVESGGGLVQAGGSLRLSCAASGFTFQTYAMGWYRQAPGKERELVATINSSGGGTYYADSVKGRFTISRDNAKNTVYLQMNSLKPEDTAVDYCAADAVWFVGQAFDISDSTTYGYWGQGTQVTVSS | low polyreactivity |
| QVQLVESAGGLVQAGGSLSLSCAASGRIFNLYAMGWYRKAPGKERELVAAIRGRGTSTYYADSVKGRFTISRDNAKNTVYLQMNSLKPEDTAVYYCAREGGYGPTLQDTSRYEYWGQGTQVTVSS | low polyreactivity |
| QVQLVESGGGLVQAGGRLRLSCAASGFTFWRNAMGWYRQAPGKERELVAAISRRGGNTYYADSVKGRFTISRDNAKNCVYLQMNSLKPEDTAVYYCAADYSYYYGYDYWGQGTQVTVSS | high polyreactivity |

| Sequence | polyreactivity (PSR sort gate) |
| --- | --- |
| QVQLVESGGGLVQAGGSLRLSCAASGRTLVLNMGWYRQAPGKQRELVATINSGGSTYYADSVKGRFTISRANAKNTVYLQMNSLKPEDSAVYYCAVLSSDGKFDYWGQGSQVTVSS | low polyreactivity |
| QVQLVESGGGLVQAGGSLRLSCAASGFIFSWNAMGWYRQAPGKERELVAGISWSGGSTYYADSVKGRFTISRDNAKNTVYLQMNSLKPEDTAVYYCAKEPSVGTGGVYRYGRGDYWGQGTQVTVSS | low polyreactivity |
| QDQLVDSGGGLVQAGGSLSLSCAASGISFYGNAMAWYRPAPGKERELVAAITSGGSTNYADSVKGRFTISRDNAKNTVYLQLYSLKPEDTAVYYCAVSYVSTLRRSRYDYWGQGTQVTVSS | low polyreactivity |
| QVQLVESGVGLVQAGGSLRLSCAGSGFNFIANAMGWYRQAPGKERELVAAISDGGSTYYADSVKGRFTISRDNAKNTVYLQMNSLKPEDTAVYYCAKDVTWAGHYDYWGQGTQVTVSS | low polyreactivity |
| LVQLVESGGGLGQAGGSLRLSCAASGFTFTIYAMGWYRQAPGKERELVAAISSSGYSTYYADSVKGRFTISRDNAKNTVYFQMISLKPEDTAVYYCAARGYYRSHLGFLYDYWGQGTQVTVSS | high polyreactivity |
| QVQVVQSGGGLVQAGGSLSLSCAASGNTFYGYAMGWYRQAPGNESEFVASITLSGDSTYYADSVKGRFTISRDNAQNTVYLQMNSLKPEDTAVYYCAGVYTYPLGYYHYTYDYWGQGTQVTVSS | low polyreactivity |
| QVQLVESGGGLVQAGGSLRLSCAASGSICAYYAMGWYRQAPGKERELVAAISGTGGSTNYADSVKGRFTISRDNAKNNVYLQMNSLKPEDTAVYYCAKDYSFQWRNEFNLAGEYDYWGQGTQVTVSS | low polyreactivity |
| QVQLVESGGGLVQAGGSLRLSCAASGRTFRGYAMGWYRQAPGKERELVAGIRRGGSTNYADSVKGRFTISRDNSKNTVSLQMNSLKPEDTAVYYCAKTYTVSQPSLRTYYYWGQGTQVTVSS | high polyreactivity |
| QVQLVESGGGLVQAGGSLRLSCAASGFIIGGYAMGWYRQAPGKERELVASITSGGRTYYADSVKGRFSISRDNAKNTVFLQMNSLKPEDTAVYDCAARQQTYYYKIYYWGQGSQVTVSS | high polyreactivity |
| QVQLVESVGGLVQAGGSLRLSCAASGIILLYYALGWYRQAPGKERELVAAITTSGGRTYYADSVKGRFTISRDNAKNTVYLQMNSLKPEDTAVYYCAASTQGTYYPYKRYDYWGQGTQVTVSS | high polyreactivity |
| QVQLVESGGGLVQAGGSLRLSCDASGRTFGNNAMGWYRQAPGKERELVASISSSGGTNYADSVKGRFTISRDNAKNTVYVQLNSLKPEDTAVYYCAKRKFTARQRYNYWGQGTQVTVSS | high polyreactivity |
| QVQLVESGGGLVQAGGSLRLSCDASGITFLNYAMGWYRQAPGKERELVAAIDTRGGRTNYADSVKGRFTISRDNAKNTVYLQMNSLKPEDTAVYYCAADPFYWYRSVRGEYWGQGTQVTVSS | low polyreactivity |
| QVQLVESGGGLVQAGGSLRLSCAASGRTFIRYAMGWYRQAPGKERELVAAITQSGGSTYYADSVKGRFTISRDNAKNTVYLQMNSLKPEDTAVYYCAAEYRYPGWSYNYWGQGTQVTVSS | high polyreactivity |
| QVQLVESGGGLVQAGGSLRLSCAASGRIFITNAMGWYRPAPGKERELVAVISYIGGRTYYADSVKGRFTISRDNAKNTVYLQMNSLKPEDTAVYYCAARRSRPTYFSTGVNYWGQGTQVTVSS | high polyreactivity |
| QVQLVESGGGLVQAGGSLRLSCAASGFIFDVYAMGWYRQAPGKERELVAAITGSGSITYYADSVKGRFTISRDNAKNTVYLQMNSLKPEDTAVYYCAALGPTQDRDYWGQGTQVTVSS | high polyreactivity |
| QVQLVESGGGLVQAGGSLRLSCAASGSIFEPYVMGWYRQAPGKERELVAAIRQTGGSTYYADSVKGRFTISRDNAKNTVYLQMNSLKPEDTAVYYCAAVYLYYSRSDLYDYWGQGTQVTVSS | low polyreactivity |
| QVQLVESGGGLVQAGGSLRLSCAASGFTFYRNAMGWYRQAPGKERELVAAITRAGSTYYADSVKGRFTISRDNAKNTVYLQMNSLKPEDTAVYYCFDMSNRYAVRYDYWGQGTQVSVSS | high polyreactivity |
| QVQLVESGGGLLQAGGSLRLSCAASGSTFGHYAMGWYRQAPGKERELVAAITWSGGSTYYADSVKGRFTISGDNAKNTVYLQMKSLKPEDTAVYDCAARFGGGAARHGYWGQGTQVTVSS | high polyreactivity |
| QVQLVESGGGLVQAGRSLRLSCAASGFIYPYNALGWYRQAPGKERELVAGITWRGASTYYADSVKGRFTISRDNAKNSVYLQMNRLKPEDTAVDYCAAAYRRVTTKTFKLDYWGQGTQVTVSS | high polyreactivity |
| QVQLVESGGGLVQAGGSLRLSCAASGSTFLYYAMGWYRQAPGKERELVAVITGAGGTNYADSVKGRFTISRDNAKKTVYLQMNSLKPEDTAVYYCAARSPGTRWGDYDYWGQGTQVTVSS | low polyreactivity |
| QVQLVESGGGLVQAGGSLRLTCAASGSSLDHYTMGWYRQAPGKEMELVAGIRWTGGRTYYADSVKGRFTISRDNAKNTVYLQMNSLKQEDNAVYYCAKTGWYGPVLRFYYWGQGTQVTVSS | high polyreactivity |
